The values below come from paper PMC9825171 (Nucleic Acids Research, 2022).

One data set addresses RBPJ (53–474) (Mus musculus, UniProt P31266). Put plainly: ITC binding of L3MBTL3 constructs and peptides to native RBPJ. The settings on record: 25°C; for Kd / K: 50 mM sodium phosphate pH 6.5, 150 mM NaCl, one site binding model; for Kd: mean of at least three independent experiments; for K: mean of at least three independent experiments ± SD, NBD = no binding detected.
For a further data set, the target named is RBPJ. The settings on record: read-out: affinity for RBPJ; ref [19],[20]; cited from earlier work.
The mark [1] stands for this setting: pH 6.5, mean of at least three independent experiments ± SD.

RBPJ (53–474), sequence (P31266 53-474): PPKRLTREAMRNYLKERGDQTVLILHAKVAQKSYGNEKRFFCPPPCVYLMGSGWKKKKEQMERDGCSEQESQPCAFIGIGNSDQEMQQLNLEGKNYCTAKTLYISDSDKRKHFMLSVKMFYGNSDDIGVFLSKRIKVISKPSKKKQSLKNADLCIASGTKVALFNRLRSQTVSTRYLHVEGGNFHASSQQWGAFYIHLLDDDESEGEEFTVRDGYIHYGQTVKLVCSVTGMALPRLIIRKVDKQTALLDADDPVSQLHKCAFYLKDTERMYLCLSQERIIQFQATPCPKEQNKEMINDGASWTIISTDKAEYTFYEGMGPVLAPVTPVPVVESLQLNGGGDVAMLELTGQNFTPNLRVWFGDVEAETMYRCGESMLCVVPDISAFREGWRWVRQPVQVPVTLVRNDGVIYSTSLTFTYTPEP

B1: 1–197: human L3MBTL3 fragment, the N-terminus (1–197) (protein, UniProt Q96JM7 1-197, looked up, fragment)
chain: MTESASSTSGQEFDVFSVMDWKDGVGTLPGSDLKFRVNEFGALEVITDENEMENVKKATATTTWMVPTAQEAPTSPPSSRPVFPPAYWTSPPGCPTVFSEKTGMPFRLKDPVKVEGLQFCENCCQYGNVDECLSGGNYCSQNCARHIKDKDQKEERDVEEDNEEEDPKCSRKKKPKLSLKADTKEDGEERDDEMENK
For the molecule B1, in the data set with RBPJ (53–474), the Kd was 1500 nM and the K is 6.6 ± 0.3 × 10^5 M^−^1. Besides, in the data set with RBPJ (53–474) (setting [1]), the “ΔG°” value is given as -7.9 ± 0.03 kcal/mol, the “ΔH°” value is on record as -7.2 ± 0.1 kcal/mol and the “–TΔS°” value is given as -0.7 ± 0.1 kcal/mol.

B2: 1–523: human L3MBTL3 fragment, N-terminal region through the MBT domains (residues 1–523) (protein, UniProt Q96JM7 1-523, looked up, fragment)
chain: MTESASSTSGQEFDVFSVMDWKDGVGTLPGSDLKFRVNEFGALEVITDENEMENVKKATATTTWMVPTAQEAPTSPPSSRPVFPPAYWTSPPGCPTVFSEKTGMPFRLKDPVKVEGLQFCENCCQYGNVDECLSGGNYCSQNCARHIKDKDQKEERDVEEDNEEEDPKCSRKKKPKLSLKADTKEDGEERDDEMENKQDVRILRGSQRARRKRRGDSAVLKQGLPPKGKKAWCWASYLEEEKAVAVPAKLFKEHQSFPYNKNGFKVGMKLEGVDPEHQSVYCVLTVAEVCGYRIKLHFDGYSDCYDFWVNADALDIHPVGWCEKTGHKLHPPKGYKEEEFNWQTYLKTCKAQAAPKSLFENQNITVIPSGFRVGMKLEAVDKKNPSFICVATVTDMVDNRFLVHFDNWDESYDYWCEASSPHIHPVGWCKEHRRTLITPPGYPNVKHFSWDKYLEETNSLPAPARAFKVKPPHGFQKKMKLEVVDKRNPMFIRVATVADTDDHRVKVHFDGWNNCYDYWIDAD
As to B2, in the data set with RBPJ (53–474), the Kd was found to be 1900 nM and the K is 5.4 ± 0.9 × 10^5 M^−^1. In addition, in the data set with RBPJ (53–474) (setting [1]), the “ΔG°” value was -7.7 ± 0.2 kcal/mol and the “–TΔS°” value is reported as 2.9 ± 1.8 kcal/mol.

B3: 198–523: human L3MBTL3 fragment, the MBT domains (198–523) (protein, UniProt Q96JM7 198-523, looked up, fragment)
chain: QDVRILRGSQRARRKRRGDSAVLKQGLPPKGKKAWCWASYLEEEKAVAVPAKLFKEHQSFPYNKNGFKVGMKLEGVDPEHQSVYCVLTVAEVCGYRIKLHFDGYSDCYDFWVNADALDIHPVGWCEKTGHKLHPPKGYKEEEFNWQTYLKTCKAQAAPKSLFENQNITVIPSGFRVGMKLEAVDKKNPSFICVATVTDMVDNRFLVHFDNWDESYDYWCEASSPHIHPVGWCKEHRRTLITPPGYPNVKHFSWDKYLEETNSLPAPARAFKVKPPHGFQKKMKLEVVDKRNPMFIRVATVADTDDHRVKVHFDGWNNCYDYWIDAD
For B3, in the data set with RBPJ (53–474), the “binding to RBPJ, in words” value is reported as “no detectable binding” and the K entry is recorded as “NBD”.

B4: RITA1: corepressor, RBPJ interacting Tubulin associated protein 1 (protein, UniProt Q96K30 1-269, looked up)
RBPJ-interacting and …: MKTPVELAVSGMQTLGLQHRCRGGYRVKARTSYVDETLFGSPAGTRPTPPDFDPPWVEKANRTRGVGKEASKALGAKGSCETTPSRGSTPTLTPRKKNKYRPISHTPSYCDESLFGSRSEGASFGAPRMAKGDAAKLRALLWTPPPTPRGSHSPRPREAPLRAIHPAGPSKTEPGPAADSQKLSMGGLHSSRPLKRGLSHSLTHLNVPSTGHPATSAPHTNGPQDLRPSTSGVTFRSPLVTSRARSVSISVPSTPRRGGATQKPKPPWK
In the case of B4, the Kd at RBPJ is roughly 1000 nM.
